Results on 67 sequences are retold here after the supplement of paper PMC10724198.

This data set has as its system Saccharomyces cerevisiae. The experiment in a line: protein stability index of tFT-peptide fusion (C-terminal peptide) (PSI (0-1 scale)); higher = more stable (slower turnover). The following applies: temperature: 30 C. Here is the method: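 MPS profiling in S. cerevisiae of the yeast C-terminome library: the last 12 aa of each annotated ORF are fused to the C-terminus of a sfGFP-mCherry timer, after a GGGS linker. Cells are FACS-sorted into 8 mCherry/sfGFP bins and deep-sequenced. PSI runs from 0 (unstable) to 1 (stable); wild type and das1Δ backgrounds, two technical replicates each.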

[1] abbreviates: genetic background: das1 deletion.

± gives the standard deviation of the averaged measurements.

With KNFYNRHTSPQL [YHL008C C-terminal 12 aa], the protein stability index is, setting by setting: under setting [1], 0.737 ± 0.03; (genetic background: wild type) 0.679 ± 0.02.

Regarding KNKKNKKKGKKK [CHS5 C-terminal 12 aa], the protein stability index turned out to be 0.694 ± 0.048 under setting [1] and 0.696 ± 0.019 (genetic background: wild type).

Regarding KNLWEKFWAAVA [LYP1 C-terminal 12 aa], the protein stability index reads like this: under setting [1], 0.693 ± 0.0092; (genetic background: wild type) 0.28 ± 0.021.

On to KNLWHHKINNLN [RAM2 C-terminal 12 aa], for which the protein stability index was found to be 0.699 ± 0.017 under setting [1] and 0.166 ± 0.021 (genetic background: wild type).

Take KNRFSNGRWGRR [SLD2 C-terminal 12 aa]: the protein stability index reads like this: under setting [1], 0.701 ± 0.036; (genetic background: wild type) 0.72 ± 0.015.

On to KNRRRNTKKIAF [RLP24 C-terminal 12 aa], for which the protein stability index stood at 0.705 ± 0.03 under setting [1] and 0.6678 ± 0.0055 (genetic background: wild type).

KPEEEKETLQEE [PAF1 C-terminal 12 aa]: the protein stability index is 0.69 ± 0.046 under setting [1] and 0.649 ± 0.031 (genetic background: wild type).

Regarding KPSSNNSINIKV [AHK1 C-terminal 12 aa], the protein stability index was 0.707 ± 0.033 under setting [1] and 0.743 ± 0.031 (genetic background: wild type).

For the sequence KQIVFEIPSETH [RPS7A C-terminal 12 aa], the protein stability index is, setting by setting: under setting [1], 0.701 ± 0.013; (genetic background: wild type) 0.6789 ± 0.0028.

Take KQREKYAAVASK [SOP4 C-terminal 12 aa]: the protein stability index was 0.692 ± 0.022 under setting [1] and 0.698 ± 0.043 (genetic background: wild type).

With KQSQRQVPHSIK [SPO21 C-terminal 12 aa], the protein stability index is, setting by setting: under setting [1], 0.7194 ± 0.0004; (genetic background: wild type) 0.708 ± 0.011.

For the sequence “KQSVQQQKTGNY [YHL009W-A C-terminal 12 aa]”, the protein stability index stood at 0.699 ± 0.018 under setting [1] and 0.663 ± 0.00095 (genetic background: wild type).

With KRLGKKTVVTSR [DCC1 C-terminal 12 aa], the protein stability index reads like this: under setting [1], 0.701 ± 0.011; (genetic background: wild type) 0.717 ± 0.055.

Consider KRRNWRRTKMNI [RPL39 C-terminal 12 aa], for which the protein stability index was 0.682 ± 0.017 under setting [1] and 0.705 ± 0.04 (genetic background: wild type).

KSAKTAKASQEL [HTA2 C-terminal 12 aa]: the protein stability index turned out to be 0.705 ± 0.017 under setting [1] and 0.673 ± 0.023 (genetic background: wild type).

As to KSARSWVRSGRL [YPR053C C-terminal 12 aa], the protein stability index runs as follows: under setting [1], 0.80266 ± 0.00042; (genetic background: wild type) 0.77 ± 0.013.

For KSCDEDGQEDEA [TPA1 C-terminal 12 aa], the protein stability index runs as follows: under setting [1], 0.693 ± 0.014; (genetic background: wild type) 0.642 ± 0.011.

KSDLISNIRQKI [RBH1 C-terminal 12 aa]: the protein stability index worked out at 0.716 ± 0.035 under setting [1] and 0.638 ± 0.037 (genetic background: wild type).

Consider KSLRSSFGKKLI [PHS1 C-terminal 12 aa], for which the protein stability index turned out to be 0.706 ± 0.052 under setting [1] and 0.717 ± 0.046 (genetic background: wild type).

Take KTFINNVINVYH [FRM2 C-terminal 12 aa]: the protein stability index by setting is: under setting [1], 0.6589 ± 0.006; (genetic background: wild type) 0.674 ± 0.018.

For the sequence KTHTEYGYVMVA [YGR137W C-terminal 12 aa], the protein stability index by setting is: under setting [1], 0.618 ± 0.012; (genetic background: wild type) 0.5401 ± 0.0042.

KTSLKITHRRVI [YGL117W C-terminal 12 aa]: the protein stability index came to 0.7424 ± 0.0067 under setting [1] and 0.658 ± 0.0094 (genetic background: wild type).

As for KVSPAAAAKKAL [RPS26B C-terminal 12 aa], the protein stability index came to 0.684 ± 0.0089 under setting [1] and 0.6696 ± 0.00082 (genetic background: wild type).

KVWVAGQQVYQI [GUD1 C-terminal 12 aa]: the protein stability index came out at 0.697 ± 0.012 under setting [1] and 0.6639 ± 0.0028 (genetic background: wild type).

On to KWGMEDSPPPYH [MDM34 C-terminal 12 aa], for which the protein stability index by setting is: under setting [1], 0.734 ± 0.028; (genetic background: wild type) 0.6942 ± 0.0043.

Sequence “KYCRVPLPENNR [YEL008C-A C-terminal 12 aa]” displayed a protein stability index under setting [1] of 0.709 ± 0.015 and a protein stability index (genetic background: wild type) of 0.677 ± 0.068.

The sequence KYFCDFLLDPEI [ECM14 C-terminal 12 aa] gave a protein stability index under setting [1] of 0.741 ± 0.0083 and a protein stability index (genetic background: wild type) of 0.719 ± 0.01.

As to LANFSNEVAMNN [SWP82 C-terminal 12 aa], the protein stability index runs as follows: under setting [1], 0.696 ± 0.017; (genetic background: wild type) 0.738 ± 0.13.

As to LARTDVNFMPWF [TRA1 C-terminal 12 aa], the protein stability index was determined as 0.72 ± 0.0086 under setting [1] and 0.744 ± 0.031 (genetic background: wild type).

For LCFSKDIQLDFQ [FIG4 C-terminal 12 aa], the protein stability index runs as follows: under setting [1], 0.714 ± 0.013; (genetic background: wild type) 0.672 ± 0.043.

Turning to LDKIKTDDTYTS [FYV7 C-terminal 12 aa], the protein stability index under setting [1] was 0.7 ± 0.024 and the protein stability index (genetic background: wild type) was 0.6966 ± 0.0045.

With LDLQNQNKKNLW [PIN4 C-terminal 12 aa], the protein stability index under setting [1] came to 0.707 ± 0.02 and the protein stability index (genetic background: wild type) amounted to 0.707 ± 0.023.

For LEDQDGSLYLNY [PFU1 C-terminal 12 aa], the protein stability index came to 0.712 ± 0.011 under setting [1] and 0.662 ± 0.025 (genetic background: wild type).

With LEHMLEGKEQDE [PRM5 C-terminal 12 aa], the protein stability index under setting [1] turned out to be 0.707 ± 0.025 and the protein stability index (genetic background: wild type) was 0.751 ± 0.036.

As to LEHYSLSTFVCC [YAL045C C-terminal 12 aa], the protein stability index by setting is: under setting [1], 0.326 ± 0.032; (genetic background: wild type) 0.3476 ± 0.0029.

In turn, LESTHDKAIAGK [MNN2 C-terminal 12 aa] registered a protein stability index under setting [1] of 0.6974 ± 0.0069 and a protein stability index (genetic background: wild type) of 0.684 ± 0.021.

Turning to LETAFEEWDYYE [MRX6 C-terminal 12 aa], the protein stability index under setting [1] worked out at 0.731 ± 0.016 and the protein stability index (genetic background: wild type) is 0.787 ± 0.064.

For the sequence LFGTCLVAMLLF [SPS22 C-terminal 12 aa], the protein stability index reads like this: under setting [1], 0.461 ± 0.023; (genetic background: wild type) 0.449 ± 0.022.

In the case of LFMNAVIKTFKK [DGK1 C-terminal 12 aa], the protein stability index turned out to be 0.7 ± 0.0083 under setting [1] and 0.6997 ± 0.0014 (genetic background: wild type).

Regarding LFQALKLEWEII [TEP1 C-terminal 12 aa], the protein stability index by setting is: under setting [1], 0.7038 ± 0.0018; (genetic background: wild type) 0.69 ± 0.037.

LGDIYTLTNNEL [PHO13 C-terminal 12 aa] came in with a protein stability index under setting [1] of 0.701 ± 0.01 and a protein stability index (genetic background: wild type) of 0.6802 ± 0.00082.

Regarding LGDSPSQGRSIS [YPK2 C-terminal 12 aa], the protein stability index by setting is: under setting [1], 0.685 ± 0.012; (genetic background: wild type) 0.688 ± 0.024.

Take LGFYYIYTLHRA [ERG9 C-terminal 12 aa]: the protein stability index turned out to be 0.505 ± 0.045 under setting [1] and 0.498 ± 0.03 (genetic background: wild type).

On to LHPFREPAKINI [YDR048C C-terminal 12 aa], for which the protein stability index reads like this: under setting [1], 0.665 ± 0.024; (genetic background: wild type) 0.701 ± 0.054.

Regarding LIIRNLNAEKER [YFR056C C-terminal 12 aa], the protein stability index was 0.6974 ± 0.0041 under setting [1] and 0.686 ± 0.039 (genetic background: wild type).

In the case of LITMIRFVNSQK [DCG1 C-terminal 12 aa], the protein stability index by setting is: under setting [1], 0.677 ± 0.044; (genetic background: wild type) 0.673 ± 0.034.

On to LKAVCPPEAGFD [VEL1 C-terminal 12 aa], for which the protein stability index by setting is: under setting [1], 0.7312 ± 0.0018; (genetic background: wild type) 0.772 ± 0.019.

LKIVEKIIASEQ [YLR419W C-terminal 12 aa]: the protein stability index runs as follows: under setting [1], 0.683 ± 0.013; (genetic background: wild type) 0.711 ± 0.029.

In the case of LKMDKLGNYILE [RIO2 C-terminal 12 aa], the protein stability index turned out to be 0.717 ± 0.027 under setting [1] and 0.65 ± 0.043 (genetic background: wild type).

Consider LKYCKRRHNTPS [GCR1 C-terminal 12 aa], for which the protein stability index was determined as 0.747 ± 0.0077 under setting [1] and 0.736 ± 0.021 (genetic background: wild type).

Consider LLAKKKLKPNLL [YGR293C C-terminal 12 aa], for which the protein stability index was 0.714 ± 0.028 under setting [1] and 0.7 ± 0.04 (genetic background: wild type).

Take LLASCIETTRNK [LOT6 C-terminal 12 aa]: the protein stability index runs as follows: under setting [1], 0.691 ± 0.008; (genetic background: wild type) 0.667 ± 0.027.

In the case of LLEDIRANYSLN [YLL056C C-terminal 12 aa], the protein stability index worked out at 0.681 ± 0.012 under setting [1] and 0.692 ± 0.028 (genetic background: wild type).

For the sequence LLGFTTGKEVHL [SMF2 C-terminal 12 aa], the protein stability index is 0.6939 ± 0.0046 under setting [1] and 0.701 ± 0.014 (genetic background: wild type).

Take “LLLSAFLRNLVP [YAL016C-A C-terminal 12 aa]”: the protein stability index was 0.685 ± 0.026 under setting [1] and 0.375 ± 0.0073 (genetic background: wild type).

For LLRKLSMKRPFS [APL1 C-terminal 12 aa], the protein stability index stood at 0.683 ± 0.016 under setting [1] and 0.682 ± 0.047 (genetic background: wild type).

Regarding LNIGGNLVTPLC [YSH1 C-terminal 12 aa], the protein stability index under setting [1] amounted to 0.719 ± 0.011 and the protein stability index (genetic background: wild type) stood at 0.671 ± 0.037.

With LNNKDTKSVRHA [BRR6 C-terminal 12 aa], the protein stability index runs as follows: under setting [1], 0.667 ± 0.029; (genetic background: wild type) 0.711 ± 0.026.

The sequence “LPFSVEPTTSRM [YFR036W-A C-terminal 12 aa]” gave a protein stability index under setting [1] of 0.6999 ± 0.0065 and a protein stability index (genetic background: wild type) of 0.687 ± 0.017.

The sequence LPGINSIFKNIF [TOD6 C-terminal 12 aa] returned a protein stability index under setting [1] of 0.774 ± 0.016 and a protein stability index (genetic background: wild type) of 0.722 ± 0.063.

For the sequence LPLKLTRKVHDR [RIF2 C-terminal 12 aa], the protein stability index was determined as 0.705 ± 0.05 under setting [1] and 0.713 ± 0.012 (genetic background: wild type).

Take LPSINTIFKDML [DOT6 C-terminal 12 aa]: the protein stability index came out at 0.702 ± 0.03 under setting [1] and 0.731 ± 0.059 (genetic background: wild type).

As to LQEPDRDNDDSG [NTC20 C-terminal 12 aa], the protein stability index by setting is: under setting [1], 0.701 ± 0.013; (genetic background: wild type) 0.7 ± 0.017.

Turning to LQLFVNLGCPLS [YDR455C C-terminal 12 aa], the protein stability index runs as follows: under setting [1], 0.727 ± 0.028; (genetic background: wild type) 0.683 ± 0.019.

Consider LQNNDVTIGFAK [MUD1 C-terminal 12 aa], for which the protein stability index was 0.715 ± 0.0077 under setting [1] and 0.655 ± 0.02 (genetic background: wild type).

LQPDVPPSSGRS [KEX2 C-terminal 12 aa]: the protein stability index runs as follows: under setting [1], 0.695 ± 0.033; (genetic background: wild type) 0.703 ± 0.011.

Take LQPWEGRLYLLK [IMA5 C-terminal 12 aa]: the protein stability index runs as follows: under setting [1], 0.698 ± 0.048; (genetic background: wild type) 0.693 ± 0.063.
